Data reported in FireProtDB (doi:10.1006/jmbi.1995.0616).

B1: Subtilisin-chymotrypsin inhibitor-2A, P01053 (parent)
chain: MSSVEKKPEGVNTGAGDRHNLKTEWPELVGKSVEEAKKVILQDKPEAQIIVLPVGTIVTMEYRIDRVRLFVDKLDNIAQVPRVG

Variants of: B1
Conditions: Hordeum vulgare; pH 6.25; 25 °C; GdnHCl; Fluorescence; MES 50 mM; reversible: yes; structure 2CI2; whole UniProt chain shown

Variant | ddG of mutation (higher = less stable) | denaturant m value | denaturant midpoint (higher = more stable) | unfolding free energy
MSSVEKKPEGVNTGAGDRHNLKTEWPELVGKSVEEAKKVILQDKPEAQIIVVPVGTIATMEYRIDRVRLFVDKLDNIAQVPRVG [L52V V58A] | 1.93 kcal/mol | 1.86 kcal/mol/M | 3.05 M | 5.67 kcal/mol
MSSVEKKPEGVNTGAGDRHNLKTEWPELVGKSVEEAKKVILQDKPEAQIIVAPVGTIATMEYRIDRVRLFVDKLDNIAQVPRVG [L52A V58A] | 2.95 kcal/mol | 1.96 kcal/mol/M | 2.37 M | 4.65 kcal/mol
MSSVEKKPEGVNTGAGDRHNLKTEWPELVGKSVEEAKKVILQDKPEAQIIVAPVGTIVTMEYRIDRVRLAVDKLDNIAQVPRVG [L52A F70A] | 5.16 kcal/mol | 1.59 kcal/mol/M | 1.53 M | 2.44 kcal/mol
MSSVEKKPEGVNTGAGDRHNLKTEWPELVGKSVEEAKKVILQDKPEAQIIVAPVGTIVTMEYRIDRVRLLVDKLDNIAQVPRVG [L52A F70L] | 3.25 kcal/mol | 1.94 kcal/mol/M | 2.24 M | 4.35 kcal/mol
MSSVEKKPEGVNTGAGDRHNLKTEWPELVGKSVEEAKKVILQDKPAAQIIVLPVGTIVTMEYRIDRVRLFVDKLDNIAQVPRVG [E46A] | 0.78 kcal/mol | 1.78 kcal/mol/M | 3.83 M | 6.82 kcal/mol
MSSVEKKPEGVNTGAGDRHNLATEWPELVGKSVEEAKKVILQDKPEAQIIVLPVGTIVTMEYRIDRVRLFVDKLDNIAQVPRVG [K22A] | 1.04 kcal/mol | 1.77 kcal/mol/M | 3.72 M | 6.56 kcal/mol
MSSVEKKPEGVNTGAGDRHNLKTEWPELVGKSVEEAKKVILQDKPEAQIIVIPVGTIVTMEYRIDRVRLFVDKLDNIAQVPRVG [L52I] | 1.01 kcal/mol | 1.7 kcal/mol/M | 3.87 M | 6.59 kcal/mol
MSSVEKKPEGVNTGAGDRHNLKTEWPELVGKSVEEAKKVILQDKPEAQIIVVPVGTIVTMEYRIDRVRLFVDKLDNIAQVPRVG [L52V] | 1.02 kcal/mol | 1.76 kcal/mol/M | 3.74 M | 6.58 kcal/mol
MSSVEKKPEGVNTGAGDRHNLKTEWPELVGKSVEEAKKVILQDKPEAQIIVAPVGTIVTMEYRIDRVRLFVDKLDNIAQVPRVG [L52A] | 1.74 kcal/mol | 2.11 kcal/mol/M | 2.78 M | 5.86 kcal/mol
MSSVEKKPEGVNTGAGDRHNLKTEWPELVGKSVEEAKKVILQDKPEAQIIVLPVGVIVTMEYRIDRVRLFVDKLDNIAQVPRVG [T56V] | 1.57 kcal/mol | 1.67 kcal/mol/M | 3.61 M | 6.03 kcal/mol
MSSVEKKPEGVNTGAGDRHNLKTEWPELVGKSVEEAKKVILQDKPEAQIIVLPVGSIVTMEYRIDRVRLFVDKLDNIAQVPRVG [T56S] | 0.98 kcal/mol | 1.66 kcal/mol/M | 3.99 M | 6.62 kcal/mol
MSSVEKKPEGVNTGAGDRHNLKTEWPELVGKSVEEAKKVILQDKPEAQIIVLPVGAIVTMEYRIDRVRLFVDKLDNIAQVPRVG [T56A] | 1.42 kcal/mol | 1.5 kcal/mol/M | 4.12 M | 6.18 kcal/mol
MSSVEKKPEGVNTGAGDRHNLKTEWPELVGKSVEEAKKVIGQDKPEAQIIVLPVGTIVTMEYRIDRVRLFVDKLDNIAQVPRVG [L41G] | 2.09 kcal/mol | 1.68 kcal/mol/M | 3.29 M | 5.51 kcal/mol
MSSVEKKPEGVNTGAGDRHNLKTEWPELVGKSVEEAKKVIAQDKPEAQIIVLPVGTIVTMEYRIDRVRLFVDKLDNIAQVPRVG [L41A] | 1.21 kcal/mol | 1.93 kcal/mol/M | 3.32 M | 6.39 kcal/mol
MSSVEKKPEGVNTGAGDRHNLKTEWPALVGKSVEEAKKVILQDKPEAQIIVLPVGTIVTMEYRIDRVRLFVDKLDNIAQVPRVG [E27A] | 1.03 kcal/mol | 1.75 kcal/mol/M | 3.76 M | 6.57 kcal/mol
MSSVEKKPEGVNTGAGDRHNLKTEWPQLVGKSVEEAKKVILQDKPEAQIIVLPVGTIVTMEYRIDRVRLFVDKLDNIAQVPRVG [E27Q] | 0.57 kcal/mol | 1.91 kcal/mol/M | 3.68 M | 7.03 kcal/mol
MSSVEKKPEGVNTGAGDRHNLKTEWPELVGKSVEEAKKVILQDKPEAQIIVLPVGTIATMEYRIDRVRLFVDKLDNIAQAPRVG [V58A V80A] | 3.78 kcal/mol | 2.19 kcal/mol/M | 1.75 M | 3.82 kcal/mol
MSSVEKKPEGVNTGAGDRHNLKTEWPELVGKSVEEAKKVILQAKPEAQIIVLPVGTIVTMEYRIDRVRLFVDKLDNIAQVPRVG [D43A] | 1.05 kcal/mol | 1.87 kcal/mol/M | 3.51 M | 6.55 kcal/mol
MSSVEKKPEGVNTGAGDRHNLKTEWPELVGKGVAAAKKVILQDKPEAQIIVLPVGTIVTMEYRIDRVRLFVDKLDNIAQVPRVG [S32G E34A E35A] | 0.81 kcal/mol | 2.15 kcal/mol/M | 3.16 M | 6.79 kcal/mol
MSSVEKKPEGVNTGAGDRHNLKTEWPELVGKSVEEAKKVILQDKPEAQIIVLPVGTAVTMEYRIDRVRLFVDKLDNIAQVPRVG [I57A] | 1.28 kcal/mol | 1.59 kcal/mol/M | 3.98 M | 6.32 kcal/mol
MSSVEKKPEGVNTGAGDRHNLKTEWPELVGKSVEEAKAVILQDKPEAQIIVLPVGTIVTMEYRIDRVRLFVDKLDNIAQVPRVG [K38A] | 0.99 kcal/mol | 1.61 kcal/mol/M | 4.11 M | 6.61 kcal/mol
MSSVEKKPEGVNTGAGDRHNLKTEWPELVGKSVEEAKGVILQDKPEAQIIVLPVGTIVTMEYRIDRVRLFVDKLDNIAQVPRVG [K38G] | 1.58 kcal/mol | 1.73 kcal/mol/M | 3.49 M | 6.02 kcal/mol
MSSVEKKPEGVNTGAGDRHNLKTEWPELVGKSVEEAKKVILQDKPEAQIIVLPVGTIATMEYRIDRVRLFVDKLDNIAQVPRVG [V58A] | 0.67 kcal/mol | 2.14 kcal/mol/M | 3.24 M | 6.93 kcal/mol
MSSVEKKPEGVNTGAGDRHNLKTEWPELVGKSVEEGKKVILQDKPEAQIIVLPVGTIVTMEYRIDRVRLFVDKLDNIAQVPRVG [A36G] | 1.41 kcal/mol | 1.8 kcal/mol/M | 3.44 M | 6.19 kcal/mol
MSSVEKKPEGVNTGAGDRHNLKTEWPELVGKSVEEAKKVILQDKPEAMIIVLPVGTIVTLEYRIDRVRLFVDKLDNIAQVPRVG [Q48M M60L] | 0.18 kcal/mol | 1.78 kcal/mol/M | 4.16 M | 7.42 kcal/mol
MSSVEKKPEGVNTGAGDRHNLKTEWPELVGASVEEAKKVILQDKPEAQIIVLPVGTIVTMEYRIDRVRLFVDKLDNIAQVPRVG [K31A] | 1.2 kcal/mol | 1.52 kcal/mol/M | 4.22 M | 6.4 kcal/mol
